We go through one substance from paper PMC3607249.

The target of the experiment is Sulfolobus islandicus Orc1-1 Walker B mutant E147A (ATP-bound) (Sulfolobus islandicus). The experiment in a line: AUC.

As usually defined, the stoichiometry N is a count of units in the complex or per binding partner.

“Sulfolobus islandicus Orc1-1 Walker B mutant E147A (ATP-bound) (natural protein)” displayed a stoichiometry N of 2.
